The values below come from patent US10314894B2, “Treatment of cardio-renal disease using PCSK6” (THE CLEVELAND CLINIC FOUNDATION, priority 2014, dated 2019).

One experiment addresses T1, corin variant Q568P (Homo sapiens, UniProt Q9Y5Q5, Q568P).
T1 construct: expressed in transfected cells; host or cells: HEK293
T1 sequence (Q9Y5Q5 1-1042 Q568P): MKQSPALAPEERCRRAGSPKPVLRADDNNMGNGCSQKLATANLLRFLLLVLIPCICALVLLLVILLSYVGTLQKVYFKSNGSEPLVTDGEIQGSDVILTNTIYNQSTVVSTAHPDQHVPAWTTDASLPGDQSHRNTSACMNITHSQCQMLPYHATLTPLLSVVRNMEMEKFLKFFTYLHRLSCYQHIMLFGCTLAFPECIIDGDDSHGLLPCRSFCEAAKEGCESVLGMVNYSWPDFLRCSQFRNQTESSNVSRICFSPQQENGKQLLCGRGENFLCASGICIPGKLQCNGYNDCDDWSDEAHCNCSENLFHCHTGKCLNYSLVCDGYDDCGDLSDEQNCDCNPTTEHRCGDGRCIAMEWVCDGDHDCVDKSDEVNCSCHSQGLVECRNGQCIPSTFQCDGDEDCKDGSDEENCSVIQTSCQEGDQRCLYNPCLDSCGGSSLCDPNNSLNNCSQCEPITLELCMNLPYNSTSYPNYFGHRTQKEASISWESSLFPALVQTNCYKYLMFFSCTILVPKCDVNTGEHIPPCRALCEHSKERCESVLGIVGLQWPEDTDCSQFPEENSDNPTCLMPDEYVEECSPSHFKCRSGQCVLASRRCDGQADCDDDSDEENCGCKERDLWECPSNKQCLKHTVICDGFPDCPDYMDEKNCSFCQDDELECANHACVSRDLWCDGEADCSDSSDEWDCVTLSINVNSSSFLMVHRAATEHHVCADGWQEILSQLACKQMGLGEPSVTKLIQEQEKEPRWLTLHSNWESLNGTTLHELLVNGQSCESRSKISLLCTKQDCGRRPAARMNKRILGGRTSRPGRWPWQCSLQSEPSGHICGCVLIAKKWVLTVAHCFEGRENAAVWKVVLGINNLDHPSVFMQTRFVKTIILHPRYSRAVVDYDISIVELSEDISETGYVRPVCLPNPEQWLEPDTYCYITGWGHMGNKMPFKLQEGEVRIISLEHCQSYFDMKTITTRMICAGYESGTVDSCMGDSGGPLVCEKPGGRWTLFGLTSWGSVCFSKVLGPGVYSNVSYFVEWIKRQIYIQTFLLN
The experiment in a line: PCSK6-mediated corin activation in HEK293 cells, corin variant Q568P. In kind it is cell-based. The conditions noted are these: Western. The source says:
(§1) Plasmids expressing human corin WT and mutants R801A, S985A, T555I, Q568P, T555I/Q568P, K317E, S472G and R539C were reported previously. Dong, N. et al., J Biol Chem 289, 17909-17916 (2014); Knappe et al., J Biol Chem 278, 52363-52370 (2003); Wu et al., J Biol Chem 277, 16900-16905. (2002). Plasmids expressing human PCSK1-9 were made by cloning respective cDNAs into pcNDA3.1 vector. Recombinant corin and PCSK proteins encoded by these plasmids contained a C-terminal V5 or flag tag for protein detection in Western blotting.
(§2) HEK293 and HL-1 cells were transfected with corin or PCSK6 expression plasmids. After 48-72 h, cells were lysed in a buffer containing 25 mM Tris-HCl, pH 7.4, 150 mM NaCl, 1 mM EDTA, 1% (v/v) NP-40, and 1% (v/v) protease inhibitor cocktail. Recombinant corin and PCSK6 proteins were immunoprecipitated with an anti-V5 or anti-flag antibody. Western blotting was carried out to analyze corin expression and activation or PCSK6 expression with or without reducing agents. Percentage of corin activation (corin-p vs. corin fragments) was quantified by densitometric analysis of Western blots.

The next experiment has as its target T2, corin mutant R539C (Homo sapiens, UniProt Q9Y5Q5, R539C).
T2 construct: expressed in transfected cells; host or cells: HEK293
T2 sequence (Q9Y5Q5 1-1042 R539C): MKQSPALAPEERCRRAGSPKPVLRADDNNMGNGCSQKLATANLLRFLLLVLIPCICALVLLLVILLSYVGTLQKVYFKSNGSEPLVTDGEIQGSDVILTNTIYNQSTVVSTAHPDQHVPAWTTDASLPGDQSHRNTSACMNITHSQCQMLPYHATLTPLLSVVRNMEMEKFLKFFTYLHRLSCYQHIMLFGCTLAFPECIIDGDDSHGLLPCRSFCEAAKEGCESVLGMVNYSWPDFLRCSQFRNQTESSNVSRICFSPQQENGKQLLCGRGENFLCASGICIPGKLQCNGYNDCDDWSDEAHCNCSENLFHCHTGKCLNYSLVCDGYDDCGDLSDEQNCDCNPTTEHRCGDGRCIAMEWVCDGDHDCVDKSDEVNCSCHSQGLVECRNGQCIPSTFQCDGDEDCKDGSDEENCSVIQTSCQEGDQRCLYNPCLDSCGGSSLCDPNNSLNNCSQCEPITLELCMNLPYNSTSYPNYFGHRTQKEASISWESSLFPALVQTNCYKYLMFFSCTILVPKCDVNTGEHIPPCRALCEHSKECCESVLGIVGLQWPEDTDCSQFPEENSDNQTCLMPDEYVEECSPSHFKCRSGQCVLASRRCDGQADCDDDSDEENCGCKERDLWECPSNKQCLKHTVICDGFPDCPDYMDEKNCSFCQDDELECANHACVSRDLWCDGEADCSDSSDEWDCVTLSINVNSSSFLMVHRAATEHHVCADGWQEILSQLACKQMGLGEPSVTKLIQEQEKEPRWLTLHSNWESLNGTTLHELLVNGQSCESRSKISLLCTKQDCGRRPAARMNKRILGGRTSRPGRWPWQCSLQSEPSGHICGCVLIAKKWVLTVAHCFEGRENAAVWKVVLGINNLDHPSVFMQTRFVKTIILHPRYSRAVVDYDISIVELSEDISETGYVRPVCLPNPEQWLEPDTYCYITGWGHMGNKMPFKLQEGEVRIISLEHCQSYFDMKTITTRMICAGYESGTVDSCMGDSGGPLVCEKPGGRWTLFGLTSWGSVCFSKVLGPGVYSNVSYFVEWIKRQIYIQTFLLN
The experiment in a line: PCSK6-mediated corin activation in HEK293 cells, corin mutant R539C. In kind it is cell-based. The conditions noted are these: Western, densitometry.
Text: as §1, §2

B1: proprotein convertase subtilisin/kexin-6 (protein, listed as Homo sapiens)
chain: MPPRAPPAPGPRPPPRAAAATDTAAGAGGAGGAGGAGGPGFRPLAPRPWRWLLLLALPAACSAPPPRPVYTNHWAVQVLGGPAEADRVAAAHGYLNLGQIGNLEDYYHFYHSKTFKRSTLSSRGPHTFLRMDPQVKWLQQQEVKRRVKRQVRSDPQALYFNDPIWSNMWYLHCGDKNSRCRSEMNVQAAWKRGYTGKNVVVTILDDGIERNHPDLAPNYDSYASYDVNGNDYDPSPRYDASNENKHGTRCAGEVAASANNSYCIVGIAYNAKIGGIRMLDGDVTDVVEAKSLGIRPNYIDIYSASWGPDDDGKTVDGPGRLAKQAFEYGIKKGRQGLGSIFVWASGNGGREGDYCSCDGYTNSIYTISVSSATENGYKPWYLEECASTLATTYSSGAFYERKIVTTDLRQRCTDGHTGTSVSAPMVAGIIALALEANSQLTWRDVQHLLVKTSRPAHLKASDWKVNGAGHKVSHFYGFGLVDAEALVVEAKKWTAVPSQHMCVAASDKRPRSIPLVQVLRTTALTSACAEHSDQRVVYLEHVVVRTSISHPRRGDLQIYLVSPSGTKSQLLAKRLLDLSNEGFTNWEFMTVHCWGEKAEGQWTLEIQDLPSQVRNPEKQGKLKEWSLILYGTAEHPYHTFSAHQSRSRMLELSAPELEPPKAALSPSQVEVPEDEEDYTAQSTPGSANILQTSVCHPECGDKGCDGPNADQCLNCVHFSLGSVKTSRKCVSVCPLGYFGDTAARRCRRCHKGCETCSSRAATQCLSCRRGFYHHQEMNTCVTLCPAGFYADESQKNCLKCHPSCKKCVDEPEKCTVCKEGFSLARGSCIPDCEPGTYFDSELIRCGECHHTCGTCVGPGREECIHCAKNFHFHDWKCVPACGEGFYPEEMPGLPHKVCRRCDENCLSCAGSSRNCSRCKTGFTQLGTSCITNHTCSNADETFCEMVKSNRLCERKLFIQFCCRTCLLAG
modifications: C-terminal FLAG tag
For the molecule B1, the PCSK6-mediated activation cleavage entry with corin variant Q568P was “detected”. In the experiment with corin mutant R539C, the “reduction in PCSK6-mediated corin activation compared with WT corin” value amounted to 62%.
